Assay results reported in patent publication US20210122826A1 (MIT, published 2021).

Key:
Assay in all cases: flow, Jurkat, 100 nM Ab
[1] = target: T1, human CD161 (human, UniProt Q12918 1-225)
T1 construct: UniProt Q12918; also called hCD161; KLRB1

[2] = target: T2, Human KLRF1 (human, UniProt Q9NZS2 1-231)
T2 construct: also called hKLRF1
T2 sequence: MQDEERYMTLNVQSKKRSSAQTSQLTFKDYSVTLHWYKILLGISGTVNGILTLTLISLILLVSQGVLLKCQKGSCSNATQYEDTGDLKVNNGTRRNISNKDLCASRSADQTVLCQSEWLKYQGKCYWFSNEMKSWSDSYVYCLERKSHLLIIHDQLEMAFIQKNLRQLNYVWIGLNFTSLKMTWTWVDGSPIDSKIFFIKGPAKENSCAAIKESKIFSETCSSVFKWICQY

[3] = target: T3, Human KLRF2 (human, UniProt D3W0D1 1-207)
T3 construct: also called hKLRF2
T3 sequence: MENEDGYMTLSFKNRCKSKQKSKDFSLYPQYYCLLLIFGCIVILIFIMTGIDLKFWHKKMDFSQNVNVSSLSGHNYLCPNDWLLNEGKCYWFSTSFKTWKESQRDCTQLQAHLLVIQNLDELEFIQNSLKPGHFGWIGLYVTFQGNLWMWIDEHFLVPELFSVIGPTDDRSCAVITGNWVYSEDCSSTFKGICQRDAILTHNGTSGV

[4] = target: T4, Human Clec12B (human, UniProt Q2HXU8 1-276)
T4 construct: also called hClec12B
T4 sequence: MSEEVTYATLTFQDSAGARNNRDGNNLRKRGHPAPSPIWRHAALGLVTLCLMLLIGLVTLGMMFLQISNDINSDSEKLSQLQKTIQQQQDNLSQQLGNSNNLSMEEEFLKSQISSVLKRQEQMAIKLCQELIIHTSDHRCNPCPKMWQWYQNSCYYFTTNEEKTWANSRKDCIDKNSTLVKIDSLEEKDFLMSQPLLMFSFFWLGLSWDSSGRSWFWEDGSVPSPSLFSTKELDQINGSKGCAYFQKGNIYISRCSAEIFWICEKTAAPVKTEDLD

[5] = target: T5, Human Clec5A (human, UniProt Q9NY25 1-188)
T5 construct: also called hClec5A
T5 sequence: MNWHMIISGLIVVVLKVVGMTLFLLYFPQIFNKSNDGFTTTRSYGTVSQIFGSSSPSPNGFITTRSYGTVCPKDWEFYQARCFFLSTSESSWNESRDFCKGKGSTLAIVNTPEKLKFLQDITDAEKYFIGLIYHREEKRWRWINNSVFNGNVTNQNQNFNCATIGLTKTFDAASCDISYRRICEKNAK

[6] = target: T6, Human Clec4E (human, UniProt Q9ULY5 1-219)
T6 construct: also called hClec4E
T6 sequence: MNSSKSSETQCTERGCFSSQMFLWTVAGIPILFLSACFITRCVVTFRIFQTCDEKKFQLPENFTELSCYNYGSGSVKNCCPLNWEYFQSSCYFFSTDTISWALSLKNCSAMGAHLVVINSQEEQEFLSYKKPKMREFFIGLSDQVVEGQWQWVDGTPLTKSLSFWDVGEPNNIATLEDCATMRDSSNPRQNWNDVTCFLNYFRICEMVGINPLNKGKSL

[7] = target: T7, Human Clec10A (human, UniProt Q8IUN9 1-316)
T7 construct: also called hClec10A
T7 sequence: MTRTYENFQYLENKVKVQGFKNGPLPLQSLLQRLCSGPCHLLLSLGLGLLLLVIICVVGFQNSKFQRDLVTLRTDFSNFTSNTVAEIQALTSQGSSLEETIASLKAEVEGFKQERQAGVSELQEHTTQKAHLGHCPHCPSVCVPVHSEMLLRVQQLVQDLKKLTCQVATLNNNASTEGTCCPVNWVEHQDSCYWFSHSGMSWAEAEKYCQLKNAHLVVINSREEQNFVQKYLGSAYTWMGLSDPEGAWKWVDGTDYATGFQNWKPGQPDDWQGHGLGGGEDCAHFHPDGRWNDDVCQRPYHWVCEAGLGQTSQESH

MFI normalized to WT [1]: 53.9 | MFI normalized to WT [2]: 0.89 | MFI normalized to WT [3]: 1.01 | MFI normalized to WT [4]: 1.04 | MFI normalized to WT [5]: 1.04 | MFI normalized to WT [6]: 0.94 | MFI normalized to WT [7]: 0.96
B1: anti-CD161 KW17 (antibody, V domains shown)
VH: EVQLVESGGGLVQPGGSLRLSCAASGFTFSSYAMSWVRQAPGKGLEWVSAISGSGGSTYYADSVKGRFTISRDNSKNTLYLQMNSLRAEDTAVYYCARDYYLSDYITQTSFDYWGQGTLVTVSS
VL: QSVLTQPPSVSGAPGQRVTISCTGSSSNIGAGYDVHWYQQLPGTAPKLLIYGNSNRPSGVPDRFSGSKSGTSASLAITGLQAEDEADYYCQSYDSSHTVFGGGTQLTVL
notes: Human, lambda light chain; scFv-Fc or full IgG not clear; also called KW17-Fc
